This assay concerns the target T1, alpha globin (Homo sapiens, UniProt P69905).
T1 construct: The equilibrium dissociation constant of full-length alpha globin and the eNOS oxygenase domain had not previously been quantified
Put plainly: Protein-protein binding affinity by biolayer interferometry. Conditions: binding to immobilized biotinylated alpha globin. The procedure:
FIGS. 2A-2D: A) Beta globin, eNOS, and cytochrome B5 reductase 3 (Cyb5R3) co-immunoprecipitate with alpha globin in lysates of perfused human omental arteries. P1, P2, and P3 each represent an independent replicate consisting of pooled flash-frozen arteries from two donors (n=30 arteries from each donor). P1 and P2 were incubated with an alpha globin antibody to immunoprecipitate alpha globin and bound protein partners. P3 was incubated instead with an IgG antibody as a negative control. Western blot was performed on the immunoprecipitate with antibodies for alpha globin, beta globin, Cyb5R3, or eNOS. Myc-eNOS purified from a cell overexpression lysate served as a positive control for eNOS. RBC lysate served as a positive control for alpha and beta globin. B) The red blood cell protein Band 3/SLC4A1 is not detected in protein lysates from pooled human omental arteries. Prior to immunoprecipitation, whole protein lysate was loaded into a gel and probed by Western Blot for SLC4A1 and alpha globin. […] C-D) Biolayer interferometry sensorgram traces of the binding of eNOS or AHSP to alpha globin showing association and dissociation; raw datasets shown in black, fitting curves shown. […]
Protein-protein binding affinity assessed by biolayer interferometry: Biolayer interferometry experiments were performed on the automated eight-channel Octet RED96 instrument (ForteBio). […]
In general terms: Biolayer interferometry detects binding as a change in optical thickness at a sensor tip.

For orientation: Kd means the constant that tells how readily two partners part at equilibrium. A higher Kd goes with weaker binding.

T1 sequence (P69905 whole entry, the tested form may be a part): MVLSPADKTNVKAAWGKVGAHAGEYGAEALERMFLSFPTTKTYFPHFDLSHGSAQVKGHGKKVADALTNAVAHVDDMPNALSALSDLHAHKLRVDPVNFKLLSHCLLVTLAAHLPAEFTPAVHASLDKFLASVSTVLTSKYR

B1: eNOSox: recombinant human eNOS oxidase domain (protein)
chain: PKFPRVKNWEVGSITYDTLSAQAQQDGPCTPRRCLGSLVFPRKLQGRPSPGPPAPEQLLSQARDFINQYYSSIKRSGSQAHEQRLQEVEAEVAATGTYQLRESELVFGAKQAWRNAPRCVGRIQWGKLQVFDARDCRSAQEMFTYICNHIKYATNRGNLRSAITVFPQRCPGRGDFRIWNSQLVRYAGYRQQDGSVRGDPANVEITELCIQHGWTPGNGRFDVLPLLLQAPDDPPELFLLPPELVLEVPLEHPTLEWFAALGLRWYALPAVSNMLLEIGGLEFPAAPFSGWYMSTEIGTRNLCDPHRYNILEDVAVCMDLDTRTTSSLWKDKAAVEINVAVLHSYQLAKVTIVDHHAATASFMKHLENEQKARGGCPADWAWIVPPISGSLTPVFHQEMVNYFLSPAFRYQPDPWKGSAAKGTGITR
Consider B1, for which the Kd turned out to be 1.31 µM.

The values are drawn from patent US20260258113A1, “BETA GLOBIN MIMETIC PEPTIDES AND THEIR USE” (THE UNITED STATES OF AMERICA, AS REPRESENTED BY THE …, priority 2022, published 2026).
